In one data set the target is T1, PIN1 (Arabidopsis thaliana, UniProt Q9C6B8).
T1 sequence (Q9C6B8 1-622): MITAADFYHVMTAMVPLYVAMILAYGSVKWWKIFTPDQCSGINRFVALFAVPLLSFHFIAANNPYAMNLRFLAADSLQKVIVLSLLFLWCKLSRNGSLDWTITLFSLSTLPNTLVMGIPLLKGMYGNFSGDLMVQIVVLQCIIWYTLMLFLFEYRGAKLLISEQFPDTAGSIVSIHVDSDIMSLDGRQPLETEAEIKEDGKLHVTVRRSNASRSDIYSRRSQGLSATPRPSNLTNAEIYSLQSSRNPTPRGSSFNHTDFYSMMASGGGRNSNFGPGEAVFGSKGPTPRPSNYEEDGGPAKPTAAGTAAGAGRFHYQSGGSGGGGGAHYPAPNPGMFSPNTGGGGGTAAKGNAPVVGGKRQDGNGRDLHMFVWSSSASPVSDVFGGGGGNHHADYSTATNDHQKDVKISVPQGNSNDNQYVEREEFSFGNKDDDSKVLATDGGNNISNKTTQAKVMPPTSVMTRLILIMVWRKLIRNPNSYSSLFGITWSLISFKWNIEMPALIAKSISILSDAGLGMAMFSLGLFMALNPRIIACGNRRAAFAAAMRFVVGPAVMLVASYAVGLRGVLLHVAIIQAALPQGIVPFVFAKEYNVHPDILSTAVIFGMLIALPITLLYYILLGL
T1 sequence (Q9FG74 1-498 partner): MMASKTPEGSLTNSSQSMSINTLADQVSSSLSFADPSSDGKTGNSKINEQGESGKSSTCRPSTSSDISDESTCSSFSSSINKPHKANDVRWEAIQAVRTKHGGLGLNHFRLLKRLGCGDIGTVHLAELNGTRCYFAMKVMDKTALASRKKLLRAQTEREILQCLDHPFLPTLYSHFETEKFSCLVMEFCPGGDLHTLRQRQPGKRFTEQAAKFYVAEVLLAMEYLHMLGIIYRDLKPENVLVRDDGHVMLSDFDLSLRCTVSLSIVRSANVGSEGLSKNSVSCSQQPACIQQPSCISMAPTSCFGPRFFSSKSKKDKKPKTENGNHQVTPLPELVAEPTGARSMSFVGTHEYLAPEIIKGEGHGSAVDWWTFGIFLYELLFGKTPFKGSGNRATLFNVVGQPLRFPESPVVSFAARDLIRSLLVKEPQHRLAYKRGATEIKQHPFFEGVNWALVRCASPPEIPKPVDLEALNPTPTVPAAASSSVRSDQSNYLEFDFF
The data set is described as follows: [3H]IAA efflux assay in HEK293F cells. It is filed as cell-based.

The data set “cryo-EM structure” concerns the molecule itself. The data set is described as follows: cryo-EM structure.
The target of data set [1] is Arabidopsis thaliana PIN-FORMED 1 (PIN1) auxin transporter (Arabidopsis thaliana, UniProt Q9C6B8). The data set is described as follows: cryo-EM structure.

`O=C(O)Cc1c[nH]c2ccccc12` [IAA, indole-3-acetic acid]: at PIN1, the “[3H]IAA efflux assay in HEK293F cells” value was “had much lower retention of [^3H]-IAA than cells transfected with the empty vector”.

B1: Arabidopsis thaliana PIN-FORMED 1 (PIN1) auxin transporter (natural protein)
chain: MITAADFYHVMTAMVPLYVAMILAYGSVKWWKIFTPDQCSGINRFVALFAVPLLSFHFIAANNPYAMNLRFLAADSLQKVIVLSLLFLWCKLSRNGSLDWTITLFSLSTLPNTLVMGIPLLKGMYGNFSGDLMVQIVVLQCIIWYTLMLFLFEYRGAKLLISEQFPDTAGSIVSIHVDSDIMSLDGRQPLETEAEIKEDGKLHVTVRRSNASRSDIYSRRSQGLSATPRPSNLTNAEIYSLQSSRNPTPRGSSFNHTDFYSMMASGGGRNSNFGPGEAVFGSKGPTPRPSNYEEDGGPAKPTAAGTAAGAGRFHYQSGGSGGGGGAHYPAPNPGMFSPNTGGGGGTAAKGNAPVVGGKRQDGNGRDLHMFVWSSSASPVSDVFGGGGGNHHADYSTATNDHQKDVKISVPQGNSNDNQYVEREEFSFGNKDDDSKVLATDGGNNISNKTTQAKVMPPTSVMTRLILIMVWRKLIRNPNSYSSLFGITWSLISFKWNIEMPALIAKSISILSDAGLGMAMFSLGLFMALNPRIIACGNRRAAFAAAMRFVVGPAVMLVASYAVGLRGVLLHVAIIQAALPQGIVPFVFAKEYNVHPDILSTAVIFGMLIALPITLLYYILLGL
Take B1: the binding result in the data set “cryo-EM structure” is reported as “binds”.

B2: synthetic nanobody sybody-19 (VHH)
VHH: QVQLVESGGGLVQAGGSLRLSCAASGFPVDITWMEWYRQAPGKEREWVAAIYSSGQSTWYADSVKGRFTISRDNAKNTVYLQMNSLKPEDTAVYYCRVKVGAWYKGQGTQVTVSA
B2: the binding result in data set [1] is on record as “binds”.

These data come from PMC10721474 (Plant Communications, 2023).
